Test results from paper PMC3547835.

Assays:
[1] = target: RHDV VP60 P domain fragment (a.a. 228-579), JX/CHA/97 isolate strain (rabbit hemorrhagic disease virus (JX/CHA/97 isolate strain)); assay: crystal structure; P domain (a.a. 228-579) crystals, space group P212121, hanging drop at 289 K, 0.1 M sodium acetate, 1.1 M succinic acid pH 5.5, 1.0% PEG2000MME; 2.0 Å; dimer in the asymmetric unit
[2] = target: RHDV major capsid protein VP60 (in the native virion, HYD isolate strain) (rabbit hemorrhagic disease virus (HYD isolate strain)); assay: cryo-EM structure; RHDV virions purified from infected rabbit livers, TNE buffer, vitrified; FEI Titan Krios 300 keV; ~36,000 particles; 6.5 Å overall (FSC 0.5), 5.5 Å in the inner shell; pseudo-atomic model by docking of the S and P crystal structures and MDFF

Substance	stoichiometry N [1]	stoichiometry N [2]
RHDV VP60 P domain fragment (a.a. 228-579), JX/CHA/97 isolate strain (domain or fragment)	2	–
RHDV major capsid protein VP60 (in the native virion, HYD isolate strain) (natural protein)	–	180
